Laboratory results reported in patent US7238668B1, “Inhibition of lymphocyte adherence with CS-1-peptides and fragments thereof” (Fred Hutchinson Cancer Research Center, priority 1989, dated 2007).
Ends that are not written are not given here.

Experiments:
[1] = test system: LAD (B) lymphocyte adhesion to HUVE monolayers; assay: Endothelial cell adhesion assay, LAD cells on HUVE monolayers; assay type: cell-based, human; settings: Table XI
Description: (§1) HUVEs were incubated with IL-1 β (1 ng/ml) or in some experiments with TNF α (10 ng/ml) for 6–24 hours. At the end of this incubation the HUVE monolayers were washed and used in the adhesion assay.
(§2) Human umbilical vein endothelial cells (HUVEs) were cultured in 48 well plates as described (supra). To measure adherence of lymphocytes to HUVE monolayer cultures, lymphocytes were labeled with Na2 ^51CrO4 (50 μCi/ml) for 2–4 hours), washed, and then 10^5 lymphocytes were incubated with HUVE monolayers in the presence or absence of inhibitory antibodies or CS-1 derived peptides. The lymphocytes were allowed to adhere for 30 minutes at 37°. Non-adherent cells were subsequently removed by washing with PBS, and the adherent cells were dissolved in SDS/NaOH. Bound ^51Cr-cpm were quantitated in a gamma counter. In some experiments, endothelial cells were activated prior to the adhesion assay by incubating with IL-1 β (1 ng/ml) or […] (10 ng/ml) for 6–24 hours in defined CS-100 media (Cell Systems, Seattle, Wash.).

[2] = test system: T lymphocytes (Jurkat or Molt 4 cells); assay: T lymphocyte adhesion to plasma fibronectin, tryptic fragments and CS peptides; assay type: cell-based, human
Description: (§3) Antibodies that would alter cell adhesion to purified plasma fibronectin, tryptic fragments and CS peptides were identified as previously described (Wayner and Carter, 1987). […] The plates were blocked with PBS supplemented with 10 mg/ml heat denatured BSA (HBSA). T lymphocyte or HT1080 cells were labeled with Na2 ^51CrO4 (50 μlCi/ml for 2–4 hr), washed, and 5×10^4 HT1080 or cultured T cells or […] were incubated with hybridoma culture supernatants (1:2 dilution in PBS supplemented with 1 mg/ml heat denatured BSA) or control myeloma cell culture supernatant for 15 minutes at room temperature. The cells were allowed to adhere to the protein-coated surfaces in the presence of the hybridoma supernatants for 15–30 minutes (HT1080) or 2–4 hours (lymphocytes) at 37° C. Non-adherent cells were removed by washing with PBS, and the adherent cells were dissolved in SDS/NaOH and bound ^51Cr-cpm were quantitated in a gamma counter.
Human plasma fibronectin was a generous gift from Drs. Horowitz and R. Schulman (New York Blood Center, N.Y.). […] Two overlapping peptides spanning the initial 48 residues of the IIICS region of human fibronectin (CS-1 and CS-2) were synthesized and coupled to rabbit IgG as described (Humphries et al., 1986, and Humphries et al., 1987, J. Biol. Chem. 262:6886–6892).

[3] = test system: Jurkat; assay: Inhibition of Jurkat cell adhesion to plasma fibronectin and its fragments; assay type: cell-based, human
Description: as §3

[4] = test system: K562-1 cells; assay: Inhibition of K562 cell adhesion to plasma fibronectin and fragments; assay type: cell-based, human
[5] = test system: Jurkat (T) lymphocyte adhesion to HUVE monolayers; assay: Endothelial cell adhesion assay, Jurkat cells on HUVE monolayers; assay type: cell-based, human; settings: Table XI
Description: as §1, §2

[6] = test system: Ramos (B) lymphocyte adhesion to HUVE monolayers; assay: Endothelial cell adhesion assay, Ramos cells on HUVE monolayers; assay type: cell-based, human; settings: Table XI
Description: as §1, §2

[7] = test system: fibroblasts; assay: Inhibition of fibroblast adhesion to plasma fibronectin; assay type: cell-based
Description: as §3

[8] = target: T1, integrin α5β1 (human, UniProt P08648 42-1049; P05556 21-798); assay: adhesion of T lymphocytes to CS-1 (rabbit IgG conjugate)-coated plastic with P1D6; IgG control 44339
[9] = target: T1, integrin α5β1; assay: adhesion of T lymphocytes to CS-2 (rabbit IgG conjugate)-coated plastic with P1D6; IgG control […]
[10] = target: T1, integrin α5β1; assay: cell-based or functional assay
[11] = target: T1, integrin α5β1; assay: adhesion of 51Cr-PBL to plasma fibronectin-coated plastic with hybridoma supernatant; SP2 control 100%
[12] = target: T1, integrin α5β1; assay: adhesion of 51Cr-HT1080 cells to plasma fibronectin-coated plastic with hybridoma supernatant; SP2 control 100%
[13] = target: T1, integrin α5β1; assay: adhesion of T lymphocytes to 38 kDa-coated plastic with P1D6; IgG control 22680
[14] = target: T1, integrin α5β1; assay: adhesion of T lymphocytes to 80 kDa-coated plastic with P1D6; IgG control 8580
[15] = target: T1, integrin α5β1; assay: adhesion of 51Cr-Jurkat cells to plasma fibronectin-coated plastic with hybridoma supernatant; SP2 control 100%
[16] = target: T1, integrin α5β1; assay: adhesion of 51Cr-Molt 4 cells to plasma fibronectin-coated plastic with hybridoma supernatant; SP2 control 100%
[17] = target: T2, integrin receptor α4β1 (human, UniProt P13612 34-1032; P05556 21-798); assay: adhesion of T lymphocytes to 80 kDa-coated plastic with P4C2; IgG control 8580
[18] = target: T2, integrin receptor α4β1; assay: adhesion of 51Cr-PBL to plasma fibronectin-coated plastic with hybridoma supernatant; SP2 control 100%
[19] = target: T2, integrin receptor α4β1; assay: adhesion of T lymphocytes to CS-2 (rabbit IgG conjugate)-coated plastic with P4C2; IgG control […]
[20] = target: T2, integrin receptor α4β1; assay: adhesion of 51Cr-HT1080 cells to plasma fibronectin-coated plastic with hybridoma supernatant; SP2 control 100%
[21] = target: T2, integrin receptor α4β1; assay: adhesion of 51Cr-Jurkat cells to plasma fibronectin-coated plastic with hybridoma supernatant; SP2 control 100%
[22] = target: T2, integrin receptor α4β1; assay: adhesion of T lymphocytes to 38 kDa-coated plastic with P4C2; IgG control 22680
[23] = target: T2, integrin receptor α4β1; assay: adhesion of 51Cr-Molt 4 cells to plasma fibronectin-coated plastic with hybridoma supernatant; SP2 control 100%
[24] = target: T2, integrin receptor α4β1; assay: cell-based or functional assay
[25] = target: T2, integrin receptor α4β1; assay: adhesion of T lymphocytes to CS-1 (rabbit IgG conjugate)-coated plastic with P4C2; IgG control 44339
[26] = target: T2, integrin receptor α4β1; assay: adhesion of Jurkat and Molt 4 cells to coated fragments
[27] = target: T2, integrin receptor α4β1; assay: adhesion of 51Cr-Jurkat cells to surfaces coated with graded peptide-rsa conjugate; 50% of total input cpm, read from plot
Description: Therefore, peptide-conjugates were prepared using rabbit serum albumin (rsa) as a carrier and the conjugates were tested for their ability to support cell adhesion. […] The adhesion experiments presented in Table XIV were conducted as follows:
(No adhesion=no measurable adhesion above negative controls.)

[28] = target: T2, integrin receptor α4β1; assay: T lymphocyte adhesion to coated fragments

T1 sequence (P08648 42-1049, chain 1 of 2): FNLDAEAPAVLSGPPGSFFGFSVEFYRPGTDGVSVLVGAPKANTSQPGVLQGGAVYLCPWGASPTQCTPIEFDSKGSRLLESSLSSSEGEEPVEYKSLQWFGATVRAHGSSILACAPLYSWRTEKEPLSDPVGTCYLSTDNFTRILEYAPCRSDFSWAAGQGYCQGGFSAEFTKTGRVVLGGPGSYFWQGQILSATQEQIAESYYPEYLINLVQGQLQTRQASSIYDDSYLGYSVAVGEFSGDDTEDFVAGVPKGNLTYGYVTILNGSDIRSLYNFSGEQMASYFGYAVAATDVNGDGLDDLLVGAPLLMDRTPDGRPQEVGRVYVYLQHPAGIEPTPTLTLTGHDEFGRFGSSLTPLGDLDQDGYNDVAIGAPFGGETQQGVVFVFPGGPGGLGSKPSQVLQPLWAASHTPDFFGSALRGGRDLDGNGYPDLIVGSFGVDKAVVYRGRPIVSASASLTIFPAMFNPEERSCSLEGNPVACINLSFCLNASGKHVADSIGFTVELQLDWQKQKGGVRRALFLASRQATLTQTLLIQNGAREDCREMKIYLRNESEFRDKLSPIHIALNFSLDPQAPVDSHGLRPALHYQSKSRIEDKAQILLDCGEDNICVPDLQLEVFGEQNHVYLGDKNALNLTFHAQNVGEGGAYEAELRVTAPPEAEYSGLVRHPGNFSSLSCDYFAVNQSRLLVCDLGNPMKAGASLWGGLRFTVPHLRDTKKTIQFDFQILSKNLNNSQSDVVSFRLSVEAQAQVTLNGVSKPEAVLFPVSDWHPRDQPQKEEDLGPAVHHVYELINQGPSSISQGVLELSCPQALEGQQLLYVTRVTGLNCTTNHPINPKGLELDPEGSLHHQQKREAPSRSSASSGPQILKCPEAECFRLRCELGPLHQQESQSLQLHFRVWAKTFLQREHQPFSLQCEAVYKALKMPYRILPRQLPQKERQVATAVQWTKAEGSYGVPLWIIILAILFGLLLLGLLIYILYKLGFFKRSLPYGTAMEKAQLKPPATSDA
T1 sequence (P05556 21-798, chain 2 of 2): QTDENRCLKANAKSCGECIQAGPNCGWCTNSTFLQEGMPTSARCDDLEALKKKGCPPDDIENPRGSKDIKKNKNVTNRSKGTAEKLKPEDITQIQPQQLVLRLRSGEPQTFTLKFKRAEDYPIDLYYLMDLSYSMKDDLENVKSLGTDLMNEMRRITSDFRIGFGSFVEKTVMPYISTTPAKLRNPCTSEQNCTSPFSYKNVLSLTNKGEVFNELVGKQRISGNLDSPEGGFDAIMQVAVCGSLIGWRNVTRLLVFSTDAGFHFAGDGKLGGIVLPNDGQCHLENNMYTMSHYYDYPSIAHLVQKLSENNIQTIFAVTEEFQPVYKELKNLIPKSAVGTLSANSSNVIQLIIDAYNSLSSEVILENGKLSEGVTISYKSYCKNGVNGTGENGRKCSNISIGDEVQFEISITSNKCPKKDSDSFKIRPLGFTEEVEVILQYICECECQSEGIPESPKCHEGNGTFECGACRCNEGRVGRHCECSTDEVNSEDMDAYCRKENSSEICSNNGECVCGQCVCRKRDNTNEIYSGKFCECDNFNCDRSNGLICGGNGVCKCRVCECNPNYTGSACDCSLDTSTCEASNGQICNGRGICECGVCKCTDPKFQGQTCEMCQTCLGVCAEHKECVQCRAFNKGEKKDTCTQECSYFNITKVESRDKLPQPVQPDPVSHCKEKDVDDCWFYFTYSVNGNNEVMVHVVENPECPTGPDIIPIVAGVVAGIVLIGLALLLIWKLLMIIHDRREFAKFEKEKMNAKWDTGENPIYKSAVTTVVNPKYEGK
T2 sequence (P13612 34-1032, form in doubt, chain 1 of 2): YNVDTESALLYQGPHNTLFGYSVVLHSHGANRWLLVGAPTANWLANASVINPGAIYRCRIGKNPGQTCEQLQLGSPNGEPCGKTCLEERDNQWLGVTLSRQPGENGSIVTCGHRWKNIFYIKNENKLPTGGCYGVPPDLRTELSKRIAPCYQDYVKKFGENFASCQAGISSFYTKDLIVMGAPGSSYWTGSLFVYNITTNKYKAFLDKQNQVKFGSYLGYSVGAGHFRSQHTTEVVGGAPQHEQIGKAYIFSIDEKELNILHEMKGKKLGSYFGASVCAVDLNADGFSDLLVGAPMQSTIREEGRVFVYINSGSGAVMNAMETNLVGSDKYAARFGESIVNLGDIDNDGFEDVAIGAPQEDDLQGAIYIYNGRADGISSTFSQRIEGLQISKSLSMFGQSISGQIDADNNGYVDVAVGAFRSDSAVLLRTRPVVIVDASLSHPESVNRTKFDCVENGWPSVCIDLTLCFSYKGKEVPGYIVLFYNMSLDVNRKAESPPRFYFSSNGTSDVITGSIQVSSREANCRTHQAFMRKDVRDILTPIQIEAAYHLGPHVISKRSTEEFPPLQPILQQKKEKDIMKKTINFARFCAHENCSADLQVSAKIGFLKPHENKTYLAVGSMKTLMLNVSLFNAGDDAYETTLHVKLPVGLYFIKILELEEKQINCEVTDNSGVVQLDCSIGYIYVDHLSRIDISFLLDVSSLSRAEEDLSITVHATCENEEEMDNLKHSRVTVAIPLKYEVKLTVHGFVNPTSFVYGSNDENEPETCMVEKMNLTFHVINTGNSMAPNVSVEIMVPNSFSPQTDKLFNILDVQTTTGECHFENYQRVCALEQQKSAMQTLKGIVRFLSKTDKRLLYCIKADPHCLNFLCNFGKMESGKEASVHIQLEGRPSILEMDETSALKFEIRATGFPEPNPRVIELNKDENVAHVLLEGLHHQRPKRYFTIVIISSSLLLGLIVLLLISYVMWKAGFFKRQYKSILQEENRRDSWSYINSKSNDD
T2 sequence (P05556 21-798, form in doubt, chain 2 of 2): as the sequence (P05556 21-798, chain 2 of 2) above

Arg-Gly-Asp-Ser (RGDS) [reference compound]
Adhesion (cpm) +IL-1β ([1]; IL-1β activated HUVE, no peptide 71408): 102076 cpm | Adhesion (cpm) Basal ([1]; basal HUVE, no peptide 44860): 70652 cpm | Inhibition of adhesion to plasma fibronectin ([2]; Molt 4 or Jurkat cells): 50–70% | Inhibition of Jurkat cell adhesion to intact fibronectin ([3]; 1 mg/ml): 50% | Inhibition of Jurkat cell adhesion to the 80 kDa fragment ([3]; 1 mg/ml): 100% | Effect on Jurkat cell adhesion to the 38 kDa fragment ([3]; up to 1 mg/ml): unaffected | Inhibition of adhesion to plasma fibronectin [4]: 100% | Adhesion (cpm) +IL-1β ([5]; IL-1β activated HUVE, no peptide 314848): 357616 cpm | Adhesion (cpm) Basal ([5]; basal HUVE, no peptide 161092): 298688 cpm | Adhesion (cpm) +IL-1β ([6]; IL-1β activated HUVE, no peptide 12936): 28104 cpm | Adhesion (cpm) Basal ([6]; basal HUVE, no peptide 2724): 16920 cpm | Inhibition of adhesion to plasma fibronectin [7]: 80–90%

monoclonal antibody P1D6
T lymphocyte adhesion (unit not given) [8]: 42900 | T lymphocyte adhesion (unit not given) [9]: 435 | Adhesion (cpm), Jurkat (T) on HUVE monolayers, +IL-1β; SP2 control 372159 [10]: 418000 cpm | Adhesion (cpm), Jurkat (T) on HUVE monolayers, Basal; SP2 control 83924 [10]: 84000 cpm | Adhesion (cpm), LAD (B) on HUVE monolayers, +IL-1β; SP2 control 104672 [10]: 114000 cpm | Adhesion (cpm), LAD (B) on HUVE monolayers, Basal; SP2 control 19542 [10]: 15700 cpm | Adhesion (cpm), Ramos (B) on HUVE monolayers, +IL-1β; SP2 control 12157 [10]: 11200 cpm | Adhesion (cpm), Ramos (B) on HUVE monolayers, Basal; SP2 control 972 [10]: 808 cpm | Fibronectin Adhesion (% Control) [11]: 43 % Control | Fibronectin Adhesion (% Control) [12]: 5 % Control | T lymphocyte adhesion (unit not given) [13]: 24900 | T lymphocyte adhesion (unit not given) [14]: 202 | Fibronectin Adhesion (% Control) [15]: 22 % Control | Fibronectin Adhesion (% Control) [16]: 18 % Control

monoclonal antibody P4C2
T lymphocyte adhesion (unit not given) [17]: 7150 | Fibronectin Adhesion (% Control) [18]: 10 % Control | T lymphocyte adhesion (unit not given) [19]: 535 | Fibronectin Adhesion (% Control) [20]: 93 % Control | Fibronectin Adhesion (% Control) [21]: 12 % Control | T lymphocyte adhesion (unit not given) [22]: 114 | Fibronectin Adhesion (% Control) [23]: 8 % Control | Adhesion (cpm), Jurkat (T) on HUVE monolayers, +IL-1β; SP2 control 372159 [24]: 137000 cpm | Adhesion (cpm), Jurkat (T) on HUVE monolayers, Basal; SP2 control 83924 [24]: 23100 cpm | Adhesion (cpm), LAD (B) on HUVE monolayers, +IL-1β; SP2 control 104672 [24]: 38100 cpm | Adhesion (cpm), LAD (B) on HUVE monolayers, Basal; SP2 control 19542 [24]: 6460 cpm | Adhesion (cpm), Ramos (B) on HUVE monolayers, +IL-1β; SP2 control 12157 [24]: 3690 cpm | Adhesion (cpm), Ramos (B) on HUVE monolayers, Basal; SP2 control 972 [24]: 456 cpm | T lymphocyte adhesion (unit not given) [25]: 841

B1: 58 kDa tryptic fragment of plasma fibronectin (ligand, human, UniProt P02751-10 1589-2125, looked up)
chain: TAGPDQTEMTIEGLQPTVEYVVSVYAQNPSGESQPLVQTAVTTIPAPTDLKFTQVTPTSLSAQWTPPNVQLTGYRVRVTPKEKTGPMKEINLAPDSSSVVVSGLMVATKYEVSVYALKDTLTSRPAQGVVTTLENVSPPRRARVTDATETTITISWRTKTETITGFQVDAVPANGQTPIQRTIKPDVRSYTITGLQPGTDYKIYLYTLNDNARSSPVVIDASTAIDAPSNLRFLATTPNSLLVSWQPPRARITGYIIKYEKPGSPPREVVPRPRPGVTEATITGLEPGTEYTIYVIALKNNQKSEPLIGRKKTGQEALSQTTISWAPFQDTSEYIISCHPVGTDEEPLQFRVPGTSTSATLTGLTRGATYNVIVEALKDQQRHKVREEVVTVGNSVNEGLNQPTDDSCFDPYTVSHYAVGDEWERMSESGFKLLCQCLGFGSGHFRCDSSRWCHDNGVNYKIGEKWDRQGENGQMMSCTCLGNGKGEFKCDPHEATCYDDGKTYHVGEQWQKEYLGAICSCTCFGGQRGWRCDNCRR
notes: domain: Hep II and Fib II (58 kDa tryptic fragment)
maximum cell attachment relative to the 38 kDa fragment [26]: 30%

EILDV (also: conjugated to SMCC-derivatized rabbit serum albumin, also called EILDV-RSA) [rsa-EILDV]
Molar Concentration required for 50% adhesion of Jurkat cells [27]: 1130 nM

B2: rsa-CS-1 (peptide)
peptide: DELPQLVTLPHPNLHGPEILDVPST
modifications: also: conjugated to SMCC-derivatized rabbit serum albumin
notes: also called CS-1-rsa; CS-1 (RSA conjugate)
Molar Concentration required for 50% adhesion of Jurkat cells [27]: 115 nM

B3: 38 kDa tryptic fragment of plasma fibronectin (ligand, human, UniProt P02751-8 1589-1968, looked up)
chain: TAGPDQTEMTIEGLQPTVEYVVSVYAQNPSGESQPLVQTAVTTIPAPTDLKFTQVTPTSLSAQWTPPNVQLTGYRVRVTPKEKTGPMKEINLAPDSSSVVVSGLMVATKYEVSVYALKDTLTSRPAQGVVTTLENVSPPRRARVTDATETTITISWRTKTETITGFQVDAVPANGQTPIQRTIKPDVRSYTITGLQPGTDYKIYLYTLNDNARSSPVVIDASTAIDAPSNLRFLATTPNSLLVSWQPPRARITGYIIKYEKPGSPPREVVPRPRPGVTEATITGLEPGTEYTIYVIALKNNQKSEPLIGRKKTDELPQLVTLPHPNLHGPEILDVPSTVQKTPFVTHPGYDTGNGIQLPGTSGQQPSVGQQMIFEEHGFR
notes: domain: Hep II and first 67 residues of IIICS (38 kDa tryptic fragment); also called CTCBD fragment
Efficiency in mediating T lymphocyte adhesion, on a molar basis ([2]; compared with the 58 kDa fragment): three times more efficient than the 58 kDa fragment | efficiency in mediating T lymphocyte adhesion relative to the 58 kDa fragment (molar basis) [28]: 3 times

LHGPEILDVPST (also: conjugated to SMCC-derivatized rabbit serum albumin, also called B12-rsa conjugate) [rsa-B12]
Molar Concentration required for 50% adhesion of Jurkat cells [27]: 492 nM
